Molecular target: ZNF207 isoform C (human, UniProt O43670-4 1-494)
Experiment: EMSA; 100 ng protein, 3 ng probe, 1 ug poly(dI-dC), 10 mM MgCl2; 10 mM HEPES pH 7.5, 10 mM KCl, 10 mM MgCl2, 1 mM DTT, 1 mM EDTA, 10% glycerol, 1 ug poly(dI-dC) in 10 ul, 10 min at room temperature; 5% native PAGE in 0.5x TBE
Conditions: protein: commercial; label: 5' biotin on sense strand; duplex of annealed sense and reverse strands

ZNF207 isoform C, sequence (O43670 other isoform, or with tags, fused parts or gaps): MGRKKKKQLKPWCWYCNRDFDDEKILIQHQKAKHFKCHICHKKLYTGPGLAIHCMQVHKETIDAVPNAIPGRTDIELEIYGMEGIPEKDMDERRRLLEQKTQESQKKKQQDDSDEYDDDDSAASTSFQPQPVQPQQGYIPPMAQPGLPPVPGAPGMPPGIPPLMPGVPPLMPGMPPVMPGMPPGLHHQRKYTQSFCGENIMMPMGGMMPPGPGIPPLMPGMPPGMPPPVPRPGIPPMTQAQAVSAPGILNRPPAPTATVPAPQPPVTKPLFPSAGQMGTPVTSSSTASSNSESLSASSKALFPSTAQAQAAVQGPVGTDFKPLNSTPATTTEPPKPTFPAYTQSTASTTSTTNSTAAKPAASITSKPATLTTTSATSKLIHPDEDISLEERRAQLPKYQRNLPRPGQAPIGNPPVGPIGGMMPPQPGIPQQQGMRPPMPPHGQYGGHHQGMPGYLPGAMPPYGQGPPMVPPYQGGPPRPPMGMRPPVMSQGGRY

B1: ZNF207 motif MUT (dsDNA)
DNA 1: TTTTAAACACGCGTGTGTTAG
DNA 2: CTAACACACGCGTGTTTAAAA
- binding result: no binding

B2: ZNF207 motif WT (dsDNA)
DNA 1: TTTGAAACACTCTTTTTGTAG
DNA 2: CTACAAAAAGAGTGTTTCAAA
- binding result: binds
